According to patent US20220064302A1 (GIGAGEN, published 2022):

Experiments:
[1] = target: T1, PD-1 expressed on cells (human, UniProt Q15116 25-288); test: cell-based or functional assay
[2] = target: T2, human PD-1 (soluble PD-1 protein, R&D Systems) (human, UniProt Q15116 25-170, limits assumed); test: array SPR (Carterra), mAb captured, PD-1 as analyte
T2 construct: the kinetics paragraphs say only 'PD-1' / 'antigen'; also called hPD-1; soluble PD-1 immunogen
Protocol: (§1) For SPR, a moderate density (»1,000 Response Units) of an antihuman IgG-Fc reagent (Southern Biotech 2047-01) was amine-coupled to a Xantec CMD-50M chip (50 nm carboxymethyldextran medium density of functional groups) activated with 133 mM EDC (Sigma) and 33.3 mM S-NHS (ThermoFisher) in 100 mM MES pH 5.5. Then, goat anti-Human IgG Fc (Southern Biotech 2047-01) was coupled for 10 minutes at […] in 10 mM Sodim Acetate pH 4.5 (Carterra Inc.). The surface was then deactivated with 1 M ethanolamine pH 8.5 (Carterra Inc.). Running buffer used for the lawn immobilization was HBS-EPC (10 mM HEPES, 150 mM NaCl, 3 mM EDTA, 0.05% Tween 20, pH 7.4; Teknova).
(§2) The sensor chip was then transferred to a continuous flow microspotter (CFM; Carterra Inc.) for array capturing. The mAb supernatants were diluted 50-fold ([…] final concentration) into HBS-EPC with 1 mg/mL BSA. The samples were each captured twice with 15-minute and 4-minute capture steps on the first and second prints, respectively, to create multiple densities, using a […] flow rate. The running buffer in the CFM was also HBS-EPC.
(§3) Next, the sensor chip was loaded onto an SPR reader (MX-96 system; Ibis Technologies) for the kinetic analysis. […] PD-1 injections were 5 minutes with a 15-minute dissociation at […] in a non-regenerative kinetic series. An injection of the goat anti-Human IgG Fc capture antibody at […] was injected at the end of the series to verify the capture level of each mAb. Binding data was double referenced by subtracting an interspot surface and a blank injection and analyzed for ka (on-rate), kd (off-rate), and KD (affinity) using the Kinetic Interaction Tool software (Carterra Inc.).

[3] = target: T2, human PD-1 (soluble PD-1 protein, R&D …); test: array SPR, mAb captured on anti-human IgG Fc, PD-1 as analyte
Protocol: as §1, §2, §3

[4] = target: T3, Cyno PD-1 (cyno); test: BLI, mAb on AHC biosensor, cyno PD-1 as analyte
T3 construct: also called cynomolgus PD-1
Protocol: The binding specificity and affinity of each full-length antibody towards PD-1 were determined using BLI and/or SPR. […] Anti-cyno PD-1 affinity was measured using BLI.
(§4) For BLI, antibodies were loaded onto an Anti-Human IgG Fc (AHC) biosensor using the Octet Red96 system (ForteBio). Loaded biosensors were dipped into antigen dilutions beginning at 300 nM, with 6 serial dilutions at 1:3. Kinetic analysis was performed using a 1:1 binding model and global fitting.

[5] = target: T2, human PD-1 (soluble PD-1 protein, R&D …); test: BLI (Octet Red96), mAb on AHC biosensor, PD-1 as analyte
Protocol: as §4

[6] = target: T1, PD-1 expressed on cells; test: flow cytometry on PD-1 expressing Flp-In CHO cells

T2 sequence (Q15116 25-170 limits assumed): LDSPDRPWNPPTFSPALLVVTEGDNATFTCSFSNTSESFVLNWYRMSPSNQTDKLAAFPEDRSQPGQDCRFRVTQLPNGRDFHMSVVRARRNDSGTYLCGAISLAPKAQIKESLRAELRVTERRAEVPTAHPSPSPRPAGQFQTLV
T1 sequence (Q15116 25-288 limits assumed): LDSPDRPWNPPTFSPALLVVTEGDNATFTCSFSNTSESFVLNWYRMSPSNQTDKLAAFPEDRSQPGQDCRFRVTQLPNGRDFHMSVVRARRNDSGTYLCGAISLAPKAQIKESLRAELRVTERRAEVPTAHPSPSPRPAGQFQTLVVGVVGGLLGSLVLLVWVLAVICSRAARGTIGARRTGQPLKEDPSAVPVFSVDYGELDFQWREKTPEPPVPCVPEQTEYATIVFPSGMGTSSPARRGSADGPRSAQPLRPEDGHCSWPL

B1: A9 (antibody, V domains shown)
VH: QVQLVESGGGVVQPGRSLRLSCAASGFTFSNYGMHWVRQAPGKGLEWVAVIWYDGTNKFYADSVKGRFTISRDNSKNTLYLQMNSLRAEDTAVYYCATNSDDYWGQGTLVTVSS
VL: AIQMTQSPSSLSASVGDRVTITCRASQDIRNDLGWYQQKPGKAPKLLIYAASLLRSGVPSRFSGSGSGTDFTLTISSLQPEDFATYYCLQDNNYPRTFGQGTKVEIK
notes: Tested as full-length mAb expressed in CHO cells; also called antibody A9; L9H9
Question: How did the “PD-1/PD-L1 blockage (IC50, µg/ml)” value [1] turn out when B1 was run?
Answer: 0.461 µg/mL

Question: What about the Kd [2] of the same binder?
Answer: 24 nM

Question: And the koff [2]?
Answer: 0.00079 s⁻¹

Question: And the kon [2]?
Answer: 32000 M⁻¹ s⁻¹

Question: What about the Kd [3] of the same binder?
Answer: 24 nM

Question: And the Kd [4]?
Answer: 42 nM

B2: A10 (antibody, V domains shown)
VH: QVQLVQSGAEVKKPGASVKVSCKASGYTFAIYGISWVRQAPGQGLEWMGWISAYSDNSNYAQKLQGRVTMTTDTSTSTAYMELRSLRSDDTAVYYCVRDGSHGDYYYGMDVWGQGTTVTVSS
VL: DIQMTQSPSSLSASVGDRVTITCRASQGISSWLAWYQQKPEKAPKSLIYAASSLQSGVPSRFSGSGSGTDFTLTISSLQPEDFATYYCQQYNSYPYTFGQGTKLEIK
notes: Tested as full-length mAb expressed in CHO cells; also called antibody A10; L10H10
Question: Which results are given for B2?
Answer: PD-1/PD-L1 blockage (IC50, µg/ml) [1]: 1.64 µg/mL; Kd [2]: 10 nM; koff [2]: 6.9e-05 s⁻¹; kon [2]: 6600 M⁻¹ s⁻¹; Kd [3]: 10 nM; Kd [4]: 12 nM

B3: A6 (antibody, V domains shown)
VH: QVQLVESGGGVVQPGRSLRLSCAASGFTFSSYGMHWVRQAPGKGLEWVAVIWYDGSNKYYADSVKGRFTISRDNSKNTLYLQMNSLRAEDTAVYYCAGGGNYWGDFWGQGTLVTVSS
VL: DIQMTQSPSSLSASVGDRVTITCRASQGIRNDLGWYQQKPGKAPKRLLYAASNLQLGVPSRFSGSGSETEFTLTISSLQPEDFATYYCLQHNSYPWTFGQGTKVEIKR
notes: Tested as full-length mAb expressed in CHO cells; also called antibody A6; L6H6
Question: B3 was tested. Which “PD-1/PD-L1 blockage (IC50, µg/ml)” value [1] did it give?
Answer: 1.12 µg/mL

Question: What about the Kd [2] of the same binder?
Answer: 70 nM

Question: What about the koff [2] of the same binder?
Answer: 0.00086 s⁻¹

Question: What about the kon [2] of the same binder?
Answer: 12000 M⁻¹ s⁻¹

Question: And the Kd [3]?
Answer: 70 nM

Question: What about the Kd [4] of the same binder?
Answer: 26 nM

B4: A4 (antibody, V domains shown)
VH: QVQLVQSGAEVKKPGASVKVSCKASGYTFATYGVSWVRQAPGQGLEWMGWISAYSDNINYAQNLQGRVTITTDTSTSTAYMELRSLRSDDTAVYYCARDGSHGDYYYGMDVWGQGTTVTVSS
VL: DIQMTQSPSSLSASVGDRVTITCRASQGISSWLAWYQQKPEKAPKSLIYAASSLQSGVPSRFSGSGSGTDFTLTISSLQPEDFATYYCQQYNSYPYTFGQGTKLEIKR
notes: Tested as full-length mAb expressed in CHO cells; also called antibody A4; L4H4
Question: How did the “PD-1/PD-L1 blockage (IC50, µg/ml)” value [1] turn out when B4 was run?
Answer: 2.12 µg/mL

Question: What about the Kd [2] of the same binder?
Answer: 20 nM

Question: What about the koff [2] of the same binder?
Answer: 0.00025 s⁻¹

Question: What about the kon [2] of the same binder?
Answer: 12000 M⁻¹ s⁻¹

Question: And the Kd [3]?
Answer: 20 nM

Question: What about the Kd [4] of the same binder?
Answer: 0.1 nM

B5: A8 (antibody, V domains shown)
VH: QVQLVESGGGVVQPGRSLRLSCAASGFTFSSYGMHWVRQAPGKGLEWVAVIWYDGSIKYYADSVKGRFTISRDNSKNTLYLQMNSLRAEDTAVYYCANDILTGSFDYWGQGTLVTVSS
VL: EIVLTQSPATLSLSPGERATLSCRASQSVSSYLAWYQQKPGQAPRLLIYDASNRATGIPARFSGSGSGTDFTLTISSLEPEDFAVYYCQQRNTWPYTFGQGTKLEIKR
notes: Tested as full-length mAb expressed in CHO cells; also called antibody A8; L8H8
Question: Which results are given for B5?
Answer: Kd [2]: 410 nM; koff [2]: 0.035 s⁻¹; kon [2]: 84000 M⁻¹ s⁻¹; Kd [3]: 410 nM; Kd [4]: 447 nM

B6: Pembrolizumab (antibody, V domains shown)
VH: QVQLVQSGVEVKKPGASVKVSCKASGYTFTNYYMYWVRQAPGQGLEWMGGINPSNGGTNFNEKFKNRVTLTTDSSTTTAYMELKSLQFDDTAVYYCARRDYRFDMGFDYWGQGTTVTVSS
VL: EIVLTQSPATLSLSPGERATLSCRASKGVSTSGYSYLHWYQQKPGQAPRLLIYLASYLESGVPARFSGSGSGTDFTLTISSLEPEDFAVYYCQHSRDLPLTFGGGTKVEIKR
Question: With B6 as the binder, how does the Kd [4] read?
Answer: 14 nM

B7: A14 (antibody, V domains shown)
VH: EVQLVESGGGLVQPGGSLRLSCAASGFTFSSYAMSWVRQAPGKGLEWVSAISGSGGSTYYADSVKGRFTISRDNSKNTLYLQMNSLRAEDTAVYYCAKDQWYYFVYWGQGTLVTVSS
VL: DIQMTQSPSSLSASVGDRVTITCRASQGIRNDLGWYQQKPGKAPKRLIYVASSLQSGVPSRFSGSGSGTEFTLTISSLQPEDFATYYCLQHNSYPLTFGGGTKVEIK
notes: Tested as full-length mAb expressed in CHO cells; also called antibody 14; L14H14
Question: Does B7 bind [5]?
Answer: no binding (tested: antigen dilutions beginning at 300 nM)

Question: Does B7 bind [6]?
Answer: binds
